For one molecule, binding result and Kd results are on record in article PMC10652106, “Crosstalk between the tRNA methyltransferase Trm1 and RNA chaperone La influences eukaryotic tRNA maturation”.

Data set [1] concerns the target T1, Trm1 M24 D201A (catalytic-dead) (Schizosaccharomyces pombe, UniProt Q9P804 24-548, D201A).
T1 sequence: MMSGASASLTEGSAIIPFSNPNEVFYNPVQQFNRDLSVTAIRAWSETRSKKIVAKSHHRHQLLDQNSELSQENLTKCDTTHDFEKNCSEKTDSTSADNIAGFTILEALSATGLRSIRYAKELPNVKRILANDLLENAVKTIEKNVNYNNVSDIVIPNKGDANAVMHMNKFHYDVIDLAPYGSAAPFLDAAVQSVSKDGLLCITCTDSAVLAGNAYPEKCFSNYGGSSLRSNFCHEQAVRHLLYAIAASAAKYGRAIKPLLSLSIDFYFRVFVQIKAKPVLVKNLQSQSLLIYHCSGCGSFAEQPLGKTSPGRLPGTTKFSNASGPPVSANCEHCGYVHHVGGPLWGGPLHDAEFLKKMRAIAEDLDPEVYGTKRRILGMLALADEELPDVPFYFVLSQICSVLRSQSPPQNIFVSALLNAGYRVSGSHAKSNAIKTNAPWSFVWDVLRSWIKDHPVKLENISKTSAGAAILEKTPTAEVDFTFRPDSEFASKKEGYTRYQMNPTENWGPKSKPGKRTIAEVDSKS
Description: EMSA; affinity comparable to WT; Kd values not in material; no SAM listed; EMSA: 20 mM Tris-HCl pH 7.6, 100 mM KCl, 0.2 mM EDTA, 1 mM DTT; 32 °C 20 min, ice 2 min; 8% native gel at 4 °C. As to conditions: protein: recombinant; label: 32P (alpha-ATP, internal); tRNA fold, single strand.

The target of data set [2] is T2, Trm1 M24 (nuclear isoform, WT) (Schizosaccharomyces pombe, UniProt Q9P804 24-548).
T2 sequence: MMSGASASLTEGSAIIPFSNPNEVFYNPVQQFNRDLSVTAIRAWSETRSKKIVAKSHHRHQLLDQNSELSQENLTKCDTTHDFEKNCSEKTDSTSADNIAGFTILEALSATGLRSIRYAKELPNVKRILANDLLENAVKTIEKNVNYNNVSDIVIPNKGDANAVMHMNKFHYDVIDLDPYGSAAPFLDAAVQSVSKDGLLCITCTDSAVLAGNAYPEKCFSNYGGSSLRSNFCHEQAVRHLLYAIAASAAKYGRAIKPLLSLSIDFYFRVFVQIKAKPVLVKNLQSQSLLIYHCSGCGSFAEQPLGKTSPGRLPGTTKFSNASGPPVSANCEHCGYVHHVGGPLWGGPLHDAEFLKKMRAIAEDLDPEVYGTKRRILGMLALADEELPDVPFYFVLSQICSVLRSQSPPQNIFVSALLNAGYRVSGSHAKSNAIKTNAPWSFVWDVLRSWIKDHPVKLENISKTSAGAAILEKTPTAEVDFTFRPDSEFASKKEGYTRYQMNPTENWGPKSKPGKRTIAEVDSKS
Description: EMSA; replicate 1 of 3; Hill coefficient 7.061; no SAM listed; EMSA: 20 mM Tris-HCl pH 7.6, 100 mM KCl, 0.2 mM EDTA, 1 mM DTT; 32 °C 20 min, ice 2 min; 8% native gel at 4 °C. The note with it: protein: recombinant; label: 32P (alpha-ATP, internal); tRNA fold, single strand. On the technique in general: Mobility shift assays separate free from complexed probe on a gel.

B1: pre-tRNA SerUGA (structured_RNA)
RNA: GUCACUAUGUCCGAGUGGUUAAGGAGUUAGACUUGAAUCCUGUCUAGUCAUCUAAUGGGCUUUGCCCGCGCAGGUUCAAAUCCUGCUGGUGACGGUAUUU
In the case of B1, in data set [1], the binding result is listed as “binds”. Further, the Kd (in general, the free concentration of one partner at which half of the binding sites on the other are occupied at equilibrium, for simple one-to-one binding) in data set [2] is 576 nM.
